Laboratory results taken from patent US20220324953A1 (JIANGSU HENGRUI MEDICINE, published 2022).
Where a chain is given by its changes, count along the chain named.

T1: human CTGF protein (R&D, Cat No. 9190-CC) (human, UniProt P29279 27-349)
T1 construct: Bought protein; also called CTGF recombinant protein; CTGF (R&D)
T1 sequence: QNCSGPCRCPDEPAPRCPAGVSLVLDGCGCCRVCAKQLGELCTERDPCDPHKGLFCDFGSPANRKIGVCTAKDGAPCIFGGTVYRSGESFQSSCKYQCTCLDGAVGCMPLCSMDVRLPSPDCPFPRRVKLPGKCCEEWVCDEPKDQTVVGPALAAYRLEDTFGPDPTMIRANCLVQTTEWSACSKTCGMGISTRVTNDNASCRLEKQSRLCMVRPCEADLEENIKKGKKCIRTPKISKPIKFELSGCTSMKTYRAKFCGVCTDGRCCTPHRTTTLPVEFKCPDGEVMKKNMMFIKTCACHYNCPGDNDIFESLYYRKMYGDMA

T2: Mouse CTGF protein-His tag (mouse, UniProt P29268 26-348)
T2 construct: C-terminal His tag; also called mouse CTGF-his protein; mouse CTGF fusion protein
T2 sequence: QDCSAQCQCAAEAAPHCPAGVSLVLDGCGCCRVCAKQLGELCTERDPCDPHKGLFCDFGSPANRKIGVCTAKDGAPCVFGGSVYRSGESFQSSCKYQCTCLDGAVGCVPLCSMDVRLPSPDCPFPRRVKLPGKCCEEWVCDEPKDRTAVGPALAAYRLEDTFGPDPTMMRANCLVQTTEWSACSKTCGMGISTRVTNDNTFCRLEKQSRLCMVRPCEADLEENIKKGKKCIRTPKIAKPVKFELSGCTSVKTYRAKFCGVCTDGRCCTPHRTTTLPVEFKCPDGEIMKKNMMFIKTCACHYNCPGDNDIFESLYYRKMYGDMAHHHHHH

B1: Hu147-22wk (antibody, human IgG1, kappa, V domains shown)
VH: EVQLVESGGGLVQPGGSLRLSCAASGFTFNTYAMNWVRQAPGKGLEWVARIRTKSNNYATYYADSVKDRFTISRDDSKNSLYLQMNSLKTEDTAVYYCVETGFAYWDQGTLVTVSS
VL: EIVLTQSPATLSLSPGERATLSCSASSSVSYMHWFQQKPGQSPKLLIYSTSNLASGIPARFSGSGSGTDYTLTISSLEPEDFAVYYCQQRSSYPLTFGQGTKLEIKR
B2: Hu147-11wk (antibody, human IgG1, kappa, V domains shown)
VH: B1 VH with N30S, A49G
VL: B1 VL with K44R
B3: Hu147-13wk (antibody, human IgG1, kappa, V domains shown)
VH: B1 VH with N30S, A49G
VL: B1 VL with L46W, I57V
B4: Hu147-21wk (antibody, human IgG1, kappa, V domains shown)
VH: B1 VH
VL: B1 VL with K44R
B5: Hu147-23wk (antibody, human IgG1, kappa, V domains shown)
VH: B1 VH
VL: B1 VL with L46W, I57V
B6: Hu147-31wk (antibody, human IgG1, kappa, V domains shown)
VH: B1 VH with T28S, K78E, N79S
VL: B1 VL with K44R
B7: Hu147-32wk (antibody, human IgG1, kappa, V domains shown)
VH: B1 VH with T28S, K78E, N79S
VL: B1 VL
B8: Hu147-33wk (antibody, human IgG1, kappa, V domains shown)
VH: B1 VH with T28S, K78E, N79S
VL: B1 VL with L46W, I57V
B9: Hu164-77wl (antibody, human IgG1, lambda, V domains shown)
VH: EVQLQESGPGLVKPSQTLSLTCTVSGFSISTFGVHWIRQHPGKGLEWIGVIWRRGGTDYNAAFMSRVTISKDTSKNQVSLKLSSVTAADTAVYYCARDGGFDYWGQGTTVTVSS
VL: ETVVTQEPSLTVSPGGTVTLTCRSSIGAVTTSNYANWVQQKPGQAFRGLIGGTSNRAPWTPARFSGSLLGGKAALTLSGVQPEDEAEYYCALWYSTHYVFGGGTKLTVLG
B10: Hu164-87wl (antibody, human IgG1, lambda, V domains shown)
VH: B9 VH with I48L, V67L, L80F
VL: B9 VL
B11: Hu164-68wl (antibody, human IgG1, lambda, V domains shown)
VH: EVTLKESGPVLVKPTETLTLTCTVSGFSLSTFGVHWIRQPPGKGLEWLGVIWRRGGTDYNAAFMSRLTISKDTSKSQVVFTMTNMDPVDTATYYCARDGGFDYWGQGTTVTVSS
VL: ETVVTQEPSFSVSPGGTVTLTCRSSIGAVTTSNYANWVQQTPGQAFRGLIGGTSNRAPGVPDRFSGSILGNKAALTITGAQADDESDYYCALWYSTHYVFGGGTKLTVLG
B12: Hu164-69wl (antibody, human IgG1, lambda, V domains shown)
VH: B11 VH
VL: ESVVTQPPSVSGAPGQRVTISCRSSIGAVTTSNYANWVQQLPGTAFKGLIGGTSNRAPGVPDRFSGSKSGTSASLAITGLQAEDEADYYCALWYSTHYVFGGGTKLTVLG
B13: positive control CTGF antibody mAb1 (antibody, V domains shown)
VH: EGQLVQSGGGLVHPGGSLRLSCAGSGFTFSSYGMHWVRQAPGKGLEWVSGIGTGGGTYSTDSVKGRFTISRDNAKNSLYLQMNSLRAEDMAVYYCARGDYYGSGSFFDCWGQGTLVTVSS
VL: DIQMTQSPSSLSASVGDRVTITCRASQGISSWLAWYQQKPEKAPKSLIYAASSLQSGVPSRFSGSGSGTDFTLTISSLQPEDFATYYCQQYNSYPPTFGQGTKLEIKR
notes: Positive control, from CN1829740B; also called pamrevlumab; FG-3019
B14: Hu147-12wk (antibody, human IgG1, kappa, V domains shown)
VH: B1 VH with N30S, A49G
VL: B1 VL
B15: Hu147-14wk (antibody, human IgG1, kappa, V domains shown)
VH: B1 VH with N30S, A49G
VL: DIQMTQSPSSLSASVGDRVTITCSASSSVSYMHWFQQKPGKSPKLLIYSTSNLASGVPSRFSGSGSGTDYTLTISSLQPEDFATYYCQQRSSYPLTFGQGTKLEIKR
B16: Hu147-15wk (antibody, human IgG1, kappa, V domains shown)
VH: B1 VH with N30S, A49G
VL: B15 VL with M4L, L46W
B17: Hu147-24wk (antibody, human IgG1, kappa, V domains shown)
VH: B1 VH
VL: B15 VL
B18: Hu147-34wk (antibody, human IgG1, kappa, V domains shown)
VH: B1 VH with T28S, K78E, N79S
VL: B15 VL
B19: Hu164-67wl (antibody, human IgG1, lambda)
heavy: not shown
light: ETVVTQEPSLTVSPGGTVTLTCRSSIGAVTTSNYANWVQQKPGQAFRGLIGGTSNRAPWTPARFSGSLLGGKAALTLSGVQPEDEAEYYCALWYSTHYVFGGGTKLTVLGQPKANPTVTLFPPSSEELQANKATLVCLISDFYPGAVTVAWKADGSPVKAGVETTKPSKQSNNKYAASSYLSLTPEQWKSHRSYSCQVTHEGSTVEKTVAPTEC

Target: T1, human CTGF protein (R&D, Cat No. …)
Assay: ELISA, plate coated with CTGF (R&D 9190-CC)
Description: The binding activity of anti-human CTGF antibody to human CTGF protein was tested by ELISA assay and Biacore. A 96-well microtiter plate was directly coated with the CTGF recombinant protein. The signal strength upon the addition of the antibody was used to determine the binding activity of the antibody to CTGF. The specific experimental procedures were as follows:
The CTGF protein (R&D, Cat No. 9190-CC) was diluted with PBS, pH 7.4 (Shanghai Yuanpei, Cat No. B320) buffer to a concentration of 0.2 μg/ml, 50 μl/well of which was added into the 96-well microtiter plate (Corning, Cat No. CLS3590-100EA), and incubated in an incubator at 37° C. for 2 hours or at 4° C. overnight (16-18 hours). The liquid was removed, 250 μl/ well blocking solution (5% skim milk (BD skim milk, Cat No.232100) diluted in PBS) was added, and incubated in an incubator at 37° C. for 3 hours or at 4° C. overnight (16-18 hours) for blocking. After the blocking was finished, the blocking solution was removed, the plate was washed for 5 times with PBST buffer (PBS containing 0.1% Tween-20, pH 7.4), 50 μl/well of various concentrations of each of the test antibodies (antibodies purified from hybridoma or humanized antibodies) diluted with sample dilution solution were added, and incubated in an incubator at 37° C. for 1 hours. After the incubation was finished, the plate was washed for 3 times with PBST, 50 μl/well of HRP-labeled goat anti-mouse secondary antibody (Jackson Immuno Research, Cat No. 115-035-003) or goat anti-human secondary antibody (Jackson Immuno Research, Cat No. 109-035-003) diluted with sample dilution solution was added, and incubated at 37° C. for 1 hour. The plate was washed for 3 times with PBST, 50 μl/well of TMB chromogenic substrate (KPL, Cat No. 52-00-03) was added, incubated at room temperature for 5-10min, and 50 μl/well of 1 M H₂SO₄ was added to stop the reaction. The absorbance value was read by a microplate reader (Molecular Devices, VERSA max) at a wavelength of 450 nm, and the data was analyzed with GraphPad Prism 5. The binding of CTGF antibody to human CTGF protein was calculated as EC50 value.

**Q.** B1 was tested. Which EC50 did it give?
**A.** 0.056 nM

**Q.** Which EC50 does the source give for B2 here?
**A.** 0.045 nM

**Q.** B3 was tested. Which EC50 did it give?
**A.** 0.043 nM

**Q.** For B4, which EC50 is on record?
**A.** 0.067 nM

**Q.** Which EC50 does the source give for B5 here?
**A.** 0.058 nM

**Q.** Which EC50 does the source give for B6 here?
**A.** 0.056 nM

**Q.** Which EC50 does the source give for B7 here?
**A.** 0.063 nM

**Q.** Which EC50 does the source give for B8 here?
**A.** 0.054 nM

**Q.** How did the EC50 turn out when B9 was run?
**A.** 0.055 nM

**Q.** For B10, which EC50 is on record?
**A.** 0.055 nM

**Q.** For B11, which EC50 is on record?
**A.** 0.069 nM

**Q.** How did the EC50 turn out when B12 was run?
**A.** 0.063 nM

**Q.** How did the EC50 turn out when B13 was run?
**A.** 0.067 nM

**Q.** Which EC50 does the source give for B14 here?
**A.** 0.046 nM

**Q.** How did the EC50 turn out when B15 was run?
**A.** 0.073 nM

**Q.** How did the EC50 turn out when B16 was run?
**A.** 0.034 nM

**Q.** B17 was tested. Which EC50 did it give?
**A.** 0.048 nM

**Q.** For B18, which EC50 is on record?
**A.** 0.134 nM

**Q.** Which EC50 does the source give for B19 here?
**A.** 0.044 nM

Target: T2, Mouse CTGF protein-His tag
Assay: ELISA, plate coated with mouse CTGF-his
Description: The binding activity of anti-mouse CTGF antibody to mouse CTGF protein was tested by ELISA assay. A 96-well microtiter plate was directly coated with the mouse CTGF fusion protein. The signal strength upon the addition of the antibody was used to determine the binding activity of the antibody to mouse CTGF. The specific experimental procedures were as follows:
The mouse CTGF-his protein was diluted with PBS, pH 7.4 (Shanghai Yuanpei, Cat No. B320) buffer to a concentration of 0.5 μg/ml, added into the 96-well microtiter plate (Corning, Cat No. CLS3590-100EA) at 50 μl/well, and incubated in an incubator at 37° C. for 2 hours. The liquid was removed, 250 μl/well blocking solution (5% skim milk (BD skim milk, Cat No. 232100) diluted in PBS) was added, and incubated in an incubator at 37° C. for 3 hours or at 4° C. overnight (16-18 hours) for blocking. After the blocking was finished, the blocking solution was removed, the plate was washed for 3 times with PBST buffer (PBS containing 0.1% Tween-20, pH 7.4), 50 μl/well of various concentrations of each of the test antibodies (antibodies purified from hybridoma or humanized antibodies) diluted with sample dilution solution were added, and incubated in an incubator at 37° C. for 1 hours. After the incubation was finished, the plate was washed for 3 times with PBST, 50 μl/well of HRP-labeled goat anti-mouse secondary antibody (Jackson Immuno Research, Cat No. 115-035-003) or goat anti-human secondary antibody (Jackson Immuno Research, Cat No. 109-035-003) diluted with sample dilution solution was added, and incubated at 37° C. for 1 hour. The plate was washed for 5 times with PBST, 50 μl/well of TMB chromogenic substrate (KPL, Cat No. 52-00-03) was added, incubated at room temperature for 5-10min, and 50 μl/well of 1 M H₂SO₄ was added to stop the reaction. The absorbance value was read by a microplate reader (Molecular Devices, VERSA max) at a wavelength of 450 nm, and the data was analyzed with GraphPad Prism 5. The binding of CTGF antibody to mouse CTGF protein was calculated as EC50 value.

**Q.** For B1, which EC50 is on record?
**A.** 0.336 nM

**Q.** Which EC50 does the source give for B2 here?
**A.** 0.228 nM

**Q.** With B3 as the binder, how does the EC50 read?
**A.** 0.127 nM

**Q.** B4 was tested. Which EC50 did it give?
**A.** 0.247 nM

**Q.** B5 was tested. Which EC50 did it give?
**A.** 0.2 nM

**Q.** Which EC50 does the source give for B6 here?
**A.** 0.32 nM

**Q.** For B7, which EC50 is on record?
**A.** 0.349 nM

**Q.** Which EC50 does the source give for B8 here?
**A.** 0.258 nM

**Q.** How did the EC50 turn out when B9 was run?
**A.** 0.058 nM

**Q.** With B10 as the binder, how does the EC50 read?
**A.** 0.067 nM

**Q.** B11 was tested. Which EC50 did it give?
**A.** 0.065 nM

**Q.** How did the EC50 turn out when B12 was run?
**A.** 0.059 nM

**Q.** For B13, which EC50 is on record?
**A.** 0.077 nM

**Q.** For B14, which EC50 is on record?
**A.** 0.249 nM

**Q.** B15 was tested. Which EC50 did it give?
**A.** 0.431 nM

**Q.** Which EC50 does the source give for B16 here?
**A.** 0.159 nM

**Q.** B17 was tested. Which EC50 did it give?
**A.** 0.263 nM

**Q.** B18 was tested. Which EC50 did it give?
**A.** 0.664 nM

**Q.** How did the EC50 turn out when B19 was run?
**A.** 0.049 nM
